# Changes are numbered by the printed parent chain. Names may count otherwise. No end group written: not given here. TMR = tetramethyl rhodamine dye
# T1: Rb^P V654L (human, UniProt P06400 380-788, V654L)
# T1 construct: also called variant 47
# T1 sequence (looked up): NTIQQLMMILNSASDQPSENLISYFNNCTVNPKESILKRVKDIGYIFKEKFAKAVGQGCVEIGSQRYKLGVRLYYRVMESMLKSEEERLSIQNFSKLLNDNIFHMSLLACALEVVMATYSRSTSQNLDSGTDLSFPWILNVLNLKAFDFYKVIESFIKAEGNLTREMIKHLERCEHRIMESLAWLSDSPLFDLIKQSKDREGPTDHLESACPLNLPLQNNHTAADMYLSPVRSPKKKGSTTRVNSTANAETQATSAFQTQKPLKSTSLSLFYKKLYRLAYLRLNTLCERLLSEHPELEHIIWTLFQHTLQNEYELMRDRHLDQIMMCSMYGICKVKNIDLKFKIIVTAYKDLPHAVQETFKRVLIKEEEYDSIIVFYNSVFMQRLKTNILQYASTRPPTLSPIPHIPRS
# T2: Rb^P S751C (human, UniProt P06400 380-788, S751C)
# T2 construct: also called variant 71
# T2 sequence (looked up): T1 sequence (looked up) with L275V, S372C
# T3: Rb^P T664A (human, UniProt P06400 380-788, T664A)
# T3 construct: also called variant 50
# T3 sequence (looked up): T1 sequence (looked up) with L275V, T285A
# T4: Rb^P K548N (human, UniProt P06400 380-788, K548N)
# T4 construct: also called variant 26
# T4 sequence (looked up): T1 sequence (looked up) with K169N, L275V
# T5: Rb^P R668C (human, UniProt P06400 380-788, R668C)
# T5 construct: also called variant 51
# T5 sequence (looked up): T1 sequence (looked up) with L275V, R289C
# B1: TMR-E2F1^TD, peptide of the E2F1 transactivation domain (peptide)
# peptide: {TMR}-GEGIRDLFDCDFGDLTPLD
# notes: also called E2F^TD; source: synthetic peptide, bought: GenScript
# B2: TMR-E7^LxCxE, LxCxE peptide of the E7 oncoprotein from HPV (peptide)
# peptide: DLYCYEQLN
# modifications: also: TMR label, position not given here
# notes: source: synthetic peptide, bought: GenScript
# How the values were obtained:
# Assay in all cases: fluorescence polarisation; 37 °C, after the 25 °C reading ramped over 7 min to 37 °C and 2 min incubation; unlabeled Rb^P against 1.5 nM TMR-E2F1^TD or 7.5 nM TMR-E7^LxCxE; 25 mM Tris pH 8.0, 200 mM NaCl, 1 mM DTT, 0.1% Tween-20; apparent Kd
# Details in all cases: both partners purified
# Rb^P V654L = target: T1, Rb^P V654L
# Rb^P S751C = target: T2, Rb^P S751C
# Rb^P T664A = target: T3, Rb^P T664A
# Rb^P K548N = target: T4, Rb^P K548N
# Rb^P R668C = target: T5, Rb^P R668C
Binder,Kd (Rb^P V654L),Kd (Rb^P S751C),Kd (Rb^P T664A),Kd (Rb^P K548N),Kd (Rb^P R668C)
B1,30 nM,137 nM,24 nM,178 nM,25 nM
B2,21 nM,98 nM,16 nM,15 nM,16 nM

# Source: PMC11931385, “Structural and functional analysis of cancer-associated missense variants in the retinoblastoma protein pocket domain” (The Journal of Biological Chemistry, 2025)
